In patent US20220089683A1 (ACCELERON PHARMA, published 2022) one finds binding result and Kd data, which are given here for two molecules.

B1: GDF11 (ligand, UniProt O95390 299-407, looked up)
chain: NLGLDCDEHSSESRCCRYPLTVDFEAFGWDWIIAPKRYKANYCSGQCEYMFMQKYPHTHLVQQANPRGSAGPCCTPTKMSPINMLYFNDKQQIIYGKIPGMVVDRCGCS
notes: also called BMP11

One test deals with T1, ActRIIA-mFc (human, UniProt P27037 21-135).
T1 construct: also called hActRIIA-mFc; not shown: mouse Fc domain
Kind of test: SPR (Biacore), ligand amine-coupled on CM5 chip, fusion protein loaded in solution. As to the method: GDF-11 or activin A were immobilized on a Biacore™ CM5 chip using standard amine-coupling procedure. ActRIIA-hFc and ActRIIA-mFc proteins were loaded onto the system, and binding was measured.
On the technique in general: In SPR one partner is held on a chip, and binding of the other changes the refractive index at the surface.

The target of another test is T2, activin A (UniProt P08476 311-426).
T2 sequence (looked up): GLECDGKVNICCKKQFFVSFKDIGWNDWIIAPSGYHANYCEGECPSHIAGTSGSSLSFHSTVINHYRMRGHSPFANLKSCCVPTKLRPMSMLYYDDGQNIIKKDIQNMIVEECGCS
Kind of test: SPR (Biacore).

A further test deals with T3, activin B (UniProt P09529 293-407).
T3 sequence (looked up): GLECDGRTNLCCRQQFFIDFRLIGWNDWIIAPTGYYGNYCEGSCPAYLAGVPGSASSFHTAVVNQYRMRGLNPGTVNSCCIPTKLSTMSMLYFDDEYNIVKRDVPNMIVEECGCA
Nature of the test: SPR (Biacore).

The test “GDF11” deals with B1. Kind of test: SPR (Biacore).

T1 sequence (P27037 21-135): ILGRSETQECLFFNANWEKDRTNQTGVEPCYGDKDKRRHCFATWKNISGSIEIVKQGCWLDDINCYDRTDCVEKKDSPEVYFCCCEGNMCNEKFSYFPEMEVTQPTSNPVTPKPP

With B1, the binding result with ActRIIA-mFc is reported as “binds”.

B2: ActRIIB(20-134)-hFc (Fc fusion)
chain: GRGEAETRECIYYNANWELERTNQSGLERCEGEQDKRLHCYASWRNSSGTIELVKKGCWLDDFNCYDRQECVATEENPQVYFCCCEGNFCNERFTHLPEAGGPEVTYEPPPTAPTGGGTHTCPPCPAPELLGGPSVFLFPPKPKDTLMISRTPEVTCVVVDVSHEDPEVKFNWYVDGVEVHNAKTKPREEQYNSTYRVVSVLTVLHQDWLNGKEYKCKVSNKALPVPIEKTISKAKGQPREPQVYTLPPSREEMTKNQVSLTCLVKGFYPSDIAVEWESNGQPENNYKTTPPVLDSDGSFFLYSKLTVDKSRWQQGNVFSCSVMHEALHNHYTQKSLSLSPGK
notes: also called ActRIIB-hFc; hActRIIB-hFc
For B2, the values for the Kd with activin A, in the test with activin B and with GDF11 were 0.016 nM, 0.012 nM and 0.036 nM, respectively.
